These results are taken from US20240279357A1 (THERINI BIO, published 2024).

In general, Kd refers to the constant that tells how readily two partners part at equilibrium. Low readings indicate a tighter complex, high ones a looser complex. As a reminder, the EC50 is the concentration that produces a half-maximal response.

The target of assay [1] is T1, P2 peptide comprising SEQ ID NO: 31 (human fibrin γ377-395) (human).
T1 construct: Bought (CPC Scientific 920712); also called human P2 peptide
T1 peptide: YSMKKTTMKIIPFNRLTIG
Nature of the assay: SPR (Biacore) single cycle, steady state fit; IgG from HEK supernatant captured, P2 peptide analyte. Here is the method:
FIG. 18 illustrates the procedure used for the single cycle kinetics analysis. The Biacore T200 […] instrument was used for single cycle kinetics analysis with the control software v2.0.1, and evaluation software V3.0. The anti-human capture chip was used with a running buffer consisting of HBS-P+ buffer (pH 7.4) containing 0.1% BSA at 25° C. a flow rate of 30 μl/min. Neat HEK supernatants were used as ligand and loaded to ˜1674 RU at 10 μl/min. P2 peptide comprising SEQ ID NO: 31 (CPC Scientific 920712, Lot #CS-02-00350) was the analyte for the analysis. […] Regeneration was performed with MgCl₂. Antibodies were diluted in running buffer to a final concentration of 20 μg/ml, based on concentrations assessed by Octet titre. At the start of each cycle, antibodies were loaded onto Fc2, Fc3 and Fc4 of the anti-human capture chip (GE Healthcare, Little Chalfont, UK). IgGs were captured at a flow rate of 10 μl/min to give an immobilization level (RL) of ˜ 1674 RU, the theoretical value to obtain an RMax of ˜50 RU. The surface was then allowed to stabilize. Single cycle kinetic data was obtained with P2 peptide as the analyte at a flow rate of 30 μl/min to minimize any potential mass transport limitations. […] The signal from the reference channel Fc1 (no antibody) was subtracted from that of Fc2, Fc3 and Fc4 to correct for differences in non-specific binding to a reference surface. […] The association phase for the five injections of increasing concentrations of P2 peptide was monitored for 20 seconds each time and a single dissociation phase was measured for 25 seconds following the last injection analyte. Regeneration of the anti-human capture surface was conducted using one injection of 3.8 M magnesium chloride.

The target in assay [2] is T1, P2 peptide comprising SEQ ID NO: 31 …. Nature of the assay: ELISA on coated P2 peptide. The method, then: The humanized antibodies affinity for fibrinogen, fibrin and P2 peptide were assessed by Enzyme-linked immunosorbent assays (ELISA)s (FIGS. 7-16). ELISAs for fibrinogen binding were performed using plasminogen-depleted human Fibrinogen (EMD/Calbiochem). […] IgG1-depleted Fibrinogen (FGN) in 20 mM HEPES/Saline buffer was added to each well of half of a 96-well Nunc Maxisorp™ ELISA plate. The ELISAs for fibrin binding were prepared by adding 50 mL of 20 mM HEPES/Saline buffer containing 14 mM CaCl₂, and 2 units thrombin to each well of the second half of the Nunc Maxisorp™ ELISA plate. 50 mL of 20 mg fibrinogen in 20 mM HEPES/Saline buffer were then added to a total volume of 100 mL. Plates were placed in a 37° C. incubator for 1 hour to allow fibrinogen to clot into fibrin and subsequently placed overnight into a plate dryer at 37° C. overnight. The ELISAs for P2 peptide were prepared by addition of […] of 30 mM P2 peptide in 20 mM HEPES/Saline buffer to each well of a 96-well Nunc Maxisorp™ ELISA plate. Plates were transferred to the plate dryer and dried overnight at 37° C. All ELISAs were preformed using Nunc MaxiSorp 96-well ELISA plates. Blocking was performed using 100 mL 5% BSA in DPBS are incubated at RT for 1 hour. Plates were washed 5× in DPBS containing 0.05% Tween-20 (EL406 was used for the addition of wash buffer only). 50 mL of primary antibodies was diluted in 0.5% BSA in DPBS, and the primary antibodies were added to the plates and incubated for 2 hours at 37° C. Plates were washed 5× in DPBS/Tween. 100 mL secondary antibodies were diluted in 0.5% BSA in DPBS. The secondary antibodies were then added to the plates and incubated for 1 hour at RT. Afterwards, plates were washed 5× in DPBS/Tween. 100 mL of TMB/E substrate solution was added, and the reaction was stopped after 5 minutes with 1N HCl.

For assay [3] the target is unchanged. Nature of the assay: SPR (Biacore) multicycle, steady state fit; purified IgG captured, P2 peptide analyte. Here is the method:
Multicycle kinetics analysis of the variants were also performed to determine antibody affinity. […] At the start of each cycle, antibodies were loaded onto Fc2, Fc3 and Fc4 of the anti-human capture chip (GE Healthcare, Little Chalfont, UK). IgGs were captured at a flow rate of 10 μl/min to give an immobilization level (RL) of ˜1674 RU, the theoretical value to obtain a RMax of ˜50 RU. The surface was then allowed to stabilize. Kinetic data was obtained with P2 peptide as analyte using a flow rate of […] to minimize any potential mass transfer effects. Multiple repeats of a blank and a repeat of three concentrations of the analyte were programmed into the kinetic run in order to check the stability of both the surface and analyte over the kinetic cycles. […] The association phase of the peptide was monitored for 20 seconds and the dissociation phase was monitored for 25 seconds. Regeneration of the anti-human capture surface was conducted using one injection of 3.8 M magnesium chloride. The signal from the reference channel Fc1 was subtracted from that of Fc2, Fc3 and Fc4 to correct for differences in non-specific binding to a reference surface, and the data was then analyzed using steady state analysis due to the low affinity interaction to P2 peptide.

Substitutions are numbered along the chain they refer to.

B1: humanized VH5/Vκ2 antibody (antibody, IgG1, V domains shown)
VH: QVQLVQSGAEVKKPGSSVKVSCKASGYTFTSYWIHWVRQAPGQGLEWIGLIDPSDSYTNYNQKFRGRVTITRDTSTSTAYMELSSLRSEDTAVYYCASSDPTGCWGQGTTVTVSS
VL: DIVMTQAAFSNPVTPGTPASISCRSSKSLLHSSGITYLSWYLQKPGQSPQLLIYQMSNLASGVPDRFSSSGSGTDFTLKISRVEAEDVGVYYCAQNLELPLTFGQGTKLEIK
notes: IgG1; also called VH5/VK2; VH5Vk2
In the case of B1, in assay [1], the Kd worked out at 130 µM and the “Relative KD” value turned out to be 1.47 fold against VH0/VK0. Moreover, the EC50 in assay [2] was around 0.0781 µM. Besides, in assay [3], binding was characterised by a dissociation constant (Kd) of 122 µM and the “Relative KD” value is 1.88 fold against VH0/VK0.

B2: humanized VH4/Vκ2 antibody (antibody, IgG1, V domains shown)
VH: B1 VH with R72V
VL: B1 VL
notes: IgG1; also called VH4/VK2; VH4Vk2
On to B2, for which, in assay [1], the affinity, expressed as Kd, was 84.5 µM and the “Relative KD” value was found to be 0.8 fold against VH0/VK0. The molecule further gave an EC50 in assay [2] of around 0.0851 µM. In addition, in assay [3], the Kd came out at 79.2 µM and the “Relative KD” value is 1.22 fold against VH0/VK0.

B3: humanized VH4/Vκ1 antibody (antibody, IgG1, V domains shown)
VH: B1 VH with R72V
VL: B1 VL with V13I, K79R
notes: Expressed as IgG1; also called VH4/VK1; VH4Vk1
On to B3, for which the Kd in assay [1] is 105 µM; in assay [3], 86.2 µM. For the same molecule, the “Relative KD” value in assay [1] worked out at 1.18 fold against VH0/VK0; in assay [3] it was 1.33 fold against VH0/VK0. Moreover, the EC50 in assay [2] is around 0.0813 µM.

B4: humanized VH6/Vκ2 antibody (antibody, IgG1, V domains shown)
VH: B1 VH with R65Q
VL: B1 VL
notes: Expressed as IgG1; also called VH6/VK2; VH6Vk2
In the case of B4, in assay [1], the dissociation constant Kd was 124 µM and the “Relative KD” value amounted to 1.4 fold against VH0/VK0. The EC50 in assay [2] was around 0.11 µM. Moreover, in assay [3], binding was put at a Kd of 132 µM and the “Relative KD” value came out at 2.04 fold against VH0/VK0.
